Measurements reported in the supplement of paper PMC10126150.
± gives the standard deviation of the averaged measurements.

system: ATP; experiment: switch fluorescence ratio, 500 uM ATP over buffer (Cy3 cluster intensity, sum of 5 cycles each) (fold (ratio)); higher = stronger signal-on switching upon ATP binding; sequences stand for … in TCGTCGGCAGCGTCAGATGTGTATAAGAGACAGTTTTTTTTTTTTTTTTTTTTTTTTT…TC; settings: aptamer strand: ATP DNA aptamer (quencher-CACCTGGGGGAGTATTGCGGAGGAAGG + anchor), 100 nM annealed; ATP concentration: 500 uM
Method in brief: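 Five buffer/ATP imaging cycles were run on Cy3-labelled switching-strand clusters on a modified Illumina MiSeq flow-cell, with NaOH stripping and re-annealing between cycles. In each cycle, clusters annealed to 100 nM quencher-labelled ATP aptamer were imaged in selection buffer, then after 15 min with 500 uM ATP at 22 °C. Per cluster, the fluorescence ratio is summed target-cycle over summed buffer-cycle Cy3 intensity, averaged per switch-domain sequence. Only clusters within 100-1000 RFU were kept.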
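Note: ATP exposure 15 min at 22 °C before imaging.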

Point of comparison: TCTGATGGAA, switch fluorescence ratio 1.06 ± 0.037. Against it:
- CGTGCGGGTG — within error, 1.03 ± 0.006
- TTGGGGGTGC — within error, 0.997 ± 0.052
- GAACGGAGCT — within error, 1.09 ± 0.052
- TAAGGGGGGA — within error, 1.03 ± 0.08
- CGGTGAGTGG — within error, 1.01 ± 0.02
- TAGGGAGAAA — within error, 1.46 ± 0.64
- TTTTTTGATG — within error, 1.01 ± 0.027
- TAATGAGTTA — lower, 0.9658 ± 0.0012
- TAAACCCTGC — within error, 1.07 ± 0.032
- TTCATATACT — the same, 1.06 ± 0.034
- TGATTTTAAG — lower, 0.999 ± 0.018
- CCAGCTGGT — within error, 1.02 ± 0.042
- AAAGGGCTGC — within error, 1.02 ± 0.13
- GCGAGATGGG — lower, 0.9735 ± 0.0013
- GTTGGTTTTT — lower, 0.975 ± 0.027
- CCCCAAGACG — lower, 0.997 ± 0.011
- CTGGTTTTTT — lower, 0.99 ± 0.01
- GGAAGGCGGC — within error, 1.08 ± 0.071
- GGGTGGAGTT — lower, 0.9672 ± 0.0046
- GCCAGTTTGC — lower, 0.998 ± 0.015
- GTGTTGTCGG — within error, 1.01 ± 0.026
- TTTTTTCTCG — within error, 1.04 ± 0.078
- ACTTGTGGGC — lower, 0.973 ± 0.045
- TATGTGTGAT — lower, 0.996 ± 0.013
- CGTGGTAAGG — lower, 0.989 ± 0.026
- GGAAAGTAAA — lower, 0.982 ± 0.014
- ATGCATTGGA — within error, 1.01 ± 0.029
- AAATGAAGGT — lower, 1.01 ± 0.013
- AGTGGTTCGG — lower, 0.993 ± 0.015
- CTGGGGTAGT — within error, 1.03 ± 0.022
- GAGGGGTATC — lower, 0.96 ± 0.045
- TTGGACTAGG — within error, 1.02 ± 0.024
- GGGAGGATGT — lower, 0.997 ± 0.022
- CTCTCTTTGA — lower, 0.963 ± 0.015
- CTGGGGGCAG — within error, 1.036 ± 0.0073
- GGTAGTTAGG — within error, 1.03 ± 0.013
- GGAATGAAG — lower, 1.012 ± 0.01
- GGGAATTCTG — lower, 0.985 ± 0.023
- CGAGTCGGGA — lower, 0.999 ± 0.021
- CGGAATAATT — within error, 1.04 ± 0.025
- TAAATTTATT — within error, 1.01 ± 0.017
- CGTGTAGGAG — lower, 0.99262 ± 0.00056
- AGGGTAAATT — within error, 1.03 ± 0.053
- CGAACCTTCG — higher, 2.35 ± 0.092
- TGGGTGGGTA — within error, 1.03 ± 0.026
- AGGTTTCCGT — within error, 1.02 ± 0.032
- GCAAGGGTGG — within error, 1 ± 0.038
- GTTCAGTTGC — within error, 0.996 ± 0.033
- TCGGAGCAGG — higher, 1.4 ± 0.058
- TATGTTGCAA — within error, 1.01 ± 0.025
- ACAGTTCCCC — within error, 1.13 ± 0.25
- TTTGAAATTT — lower, 1.006 ± 0.0096
- GGGGTGAGTA — within error, 0.98 ± 0.053
- GTGTTGGCTT — within error, 0.995 ± 0.033
- GGTAAAAATT — lower, 0.98453 ± 0.00014
- AGTGTTGCCG — within error, 0.965 ± 0.069
- AGTCATAAAA — within error, 1.01 ± 0.045
- TTAATTTTCC — within error, 1.46 ± 0.49
- AATGGGGGTA — within error, 0.998 ± 0.034
- GTTTTTGGGG — within error, 0.987 ± 0.055
- ATGTGCGATT — within error, 1 ± 0.037
- CACATTGTAG — lower, 1.007 ± 0.0086
- TTGTTATATT — lower, 0.983 ± 0.026
- GATGGAACGG — within error, 1.05 ± 0.039
- AGGATGGGGG — within error, 0.997 ± 0.045
- CCGGGTCAGC — higher, 1.21 ± 0.026
- GAGTGTTAGG — lower, 0.996 ± 0.013
- GAGTGCGTCG — within error, 1.01 ± 0.16
- TATGTTTCGT — within error, 1.01 ± 0.041
- ATCGTGGGAA — lower, 0.9793 ± 0.0059
- TGGGAATTTC — within error, 1.035 ± 0.0034
- TGGTTAGTGG — lower, 1 ± 0.02
- ATATGTGGGA — within error, 1.02 ± 0.033
- TGTTGTATTG — lower, 0.9761 ± 0.0066
- GACTAAAGGT — lower, 1.01 ± 0.013
- GACTTTTATT — lower, 0.989 ± 0.017
- TGCGTTAGCC — within error, 1.035 ± 0.0025
- AGGGGGCAAA — within error, 1.02 ± 0.045
- CGTGCTTTTC — within error, 1.15 ± 0.22
- AAGTATGGGA — within error, 1.02 ± 0.028
- ATTGCGATTC — higher, 1.159 ± 0.01
- TATGTCTTTA — lower, 1 ± 0.017
- AGGGGAGTGT — lower, 0.988 ± 0.029
- TGGGGATACC — lower, 0.987 ± 0.035
- ATCGTTCTGT — lower, 0.966 ± 0.025
- AAGTGAGCAG — lower, 1.012 ± 0.0072
- TTGAAAAAGC — lower, 0.975 ± 0.015
- TCGGCCAGGT — higher, 1.5 ± 0.046
- TTGTTTGTGC — within error, 1.02 ± 0.023
- TCATAGAGTA — within error, 1.02 ± 0.018
- CTTGACAAGG — lower, 0.982 ± 0.014
- TGATTGAAGC — within error, 1.03 ± 0.032
- AATGGTGCCT — within error, 0.996 ± 0.07
- AAAACTTTTA — within error, 1.02 ± 0.04
- TAGTTAATTG — within error, 0.987 ± 0.067
- TCTCTATGTG — lower, 0.966 ± 0.036
- ATTTCAGCTG — lower, 0.982 ± 0.027
- TAAAAAAACG — within error, 1.1 ± 0.021
- ACCAGGTCTA — within error, 1.07 ± 0.017
- TTCGAGATCT — within error, 1.16 ± 0.11
- AGAAGGTTTG — lower, 0.963 ± 0.01
- GGGCCATAAG — within error, 0.988 ± 0.052
- GCTGTTTTGT — lower, 1.004 ± 0.0092
- GTTTTTGCTT — within error, 1.01 ± 0.032
- GGTGTCTGCA — lower, 0.9931 ± 0.0019
- TGGTTTAACA — lower, 0.9924 ± 0.003
- AGGTAGCACA — the same, 1.056 ± 0.0036
- CTCGTCTGAG — lower, 1 ± 0.023
- GGGAGGGGCC — within error, 1.01 ± 0.026
- AATAAGCACA — higher, 1.2 ± 0.028
- CACGAGAAGT — within error, 1.044 ± 0.0047
- ACTTTATTTC — lower, 1.011 ± 0.006
- ATGCGCCGGT — lower, 1.011 ± 0.0027
- ATTTTGCTTT — lower, 0.965 ± 0.021
- GGCAAATCGG — lower, 0.995 ± 0.014
- AGTTGCTCCT — lower, 0.986 ± 0.024
- AAATTTGTGT — within error, 0.999 ± 0.051
- AGTTGCGGTT — lower, 1.002 ± 0.0018
- CGGGTTTTAC — within error, 1.01 ± 0.039
- GAGAGGGCAG — lower, 0.9869 ± 0.0072
- TTTTTGGTAG — within error, 1 ± 0.042
- CATGATTAAT — lower, 0.962 ± 0.033
- GGATGGGGTG — within error, 1.01 ± 0.053
- GTGACAGAGG — lower, 1.02 ± 0.0015
- GACTTTTTGC — lower, 0.933 ± 0.055
- GGGGGGAGCG — lower, 1 ± 0.021
- CGCTCCCATT — higher, 1.46 ± 0.024
- GGATGCGCAG — lower, 0.987 ± 0.016
- GAATAAATAG — within error, 1 ± 0.024
- CACGGATGTT — within error, 1.02 ± 0.093
- AGGGTCGGAA — within error, 1.02 ± 0.018
- GGGGACAGTT — within error, 1.02 ± 0.017
- TCCTGAGGCG — within error, 1.02 ± 0.022
- TACCCAAAAT — within error, 1.1 ± 0.15
- CAAATTTGG — within error, 1.05 ± 0.031
- ACACCCCCGT — higher, 1.67 ± 0.19
- TTTAGCATAA — higher, 1.23 ± 0.13
- TTGGATATTC — within error, 0.997 ± 0.033
- TTGTAATTAG — within error, 1 ± 0.039
- TGATTTTTAT — lower, 1.011 ± 0.0089
- GAGATTAATT — lower, 0.967 ± 0.016
- GTCGGGGTCA — lower, 0.99653 ± 0.0006
- GTTGCGATGA — within error, 1.02 ± 0.013
- GGTTTGGTCG — within error, 1.01 ± 0.037
- AAGTGGTTA — lower, 0.981 ± 0.026
- GTGATGCAGG — lower, 0.98 ± 0.026
- TACTGACGGT — higher, 1.4 ± 0.032
- AGAGGTAAGG — lower, 0.983 ± 0.019
- CCTATTCGTT — lower, 1.0064 ± 0.0008
- CGTGTATGTG — lower, 0.969 ± 0.043
- GGTTTGTGGT — within error, 1.03 ± 0.062
- AAGGCTAATT — lower, 0.979 ± 0.033
